# Reference: article PMC6443809, “Integrin activation by the lipid molecule 25-hydroxycholesterol induces a proinflammatory response” (Nature Communications, 2019)
# What was measured:
# IGF1 (Homo sapiens) = IGF1 (Homo sapiens) (UniProt P05019); assay: SPR; details: cited from earlier work
# [1] = target: phospholipase A2 (Homo sapiens) (UniProt P14555); assay: SPR; details: cited from earlier work
# [2] = target: vitronectin (Homo sapiens) (UniProt P04004); assay: SPR; details: cited from earlier work
# [3] = target: purified human αvβ3 integrin protein (human) (UniProt P06756); assay: radioligand binding; modified ELISA-type competitive assay: αvβ3 integrin coated on 96-well plate (200 ng/well in PBS with 1 mM MnCl2, 16 h, 4 °C); fractalkine-CD (1000 ng/well in HEPES-Tyrodes buffer) or water added 2 h at room temperature, washed; then 3H-25HC in PBS/0.5% BSA 16 h at 4 °C; bound radioactivity counted
# [4] = target: collagen-I (Homo sapiens) (UniProt P02452); assay: SPR; details: cited from earlier work
# αvβ3 integrin = target: T1, αvβ3 integrin (Homo sapiens, UniProt P05106+P06756); assay: SPR (Biacore […], immobilized αvβ[…]); also 3H-25HC binding with fractalkine-CD competition and biotin-25HC pull-down
# T1 construct: gene ITGAV; Purified human αvβ3 integrin protein; with integrin αv subunit (ITGAV)
compound,measurement,setting,value
αvβ3 integrin (from UniProt P06756),Kd,IGF1 (Homo sapiens),0.031 µM
same,Kd,[1],0.211 µM
same,Kd,[2],0.064 µM
purified chemokine domain (CD) of recombinant human fractalkine protein (from UniProt P78423 25-397) (domain or fragment),loss of 3H-25HC binding to immobilised αvβ3 integrin after pre-incubation with fractalkine-CD,[3],> 60%
α1β1 integrin (from UniProt P56199),Kd,[4],0.024 µM
"C[C@H](CCCC(C)(C)O)[C@H]1CC[C@H]2[C@@H]3CC=C4C[C@@H](O)CC[C@]4(C)[C@H]3CC[C@]12C [25HC, 25-hydroxycholesterol]",Kd,αvβ3 integrin,0.0109 µM
